Measured values published in patent US7655759 (VRIJE UNIVERSITEIT BRUSSEL, dated 2010).

Biological target: tetanus toxoid (RIT, Smith Kline Beecham) (Clostridium tetani, UniProt P04958 2-1315)
Test: ELISA by the procedure of Friguet et al.

Sequence of tetanus toxoid (RIT, Smith Kline Beecham) (P04958 2-457 limits assumed, chain 1 of 2): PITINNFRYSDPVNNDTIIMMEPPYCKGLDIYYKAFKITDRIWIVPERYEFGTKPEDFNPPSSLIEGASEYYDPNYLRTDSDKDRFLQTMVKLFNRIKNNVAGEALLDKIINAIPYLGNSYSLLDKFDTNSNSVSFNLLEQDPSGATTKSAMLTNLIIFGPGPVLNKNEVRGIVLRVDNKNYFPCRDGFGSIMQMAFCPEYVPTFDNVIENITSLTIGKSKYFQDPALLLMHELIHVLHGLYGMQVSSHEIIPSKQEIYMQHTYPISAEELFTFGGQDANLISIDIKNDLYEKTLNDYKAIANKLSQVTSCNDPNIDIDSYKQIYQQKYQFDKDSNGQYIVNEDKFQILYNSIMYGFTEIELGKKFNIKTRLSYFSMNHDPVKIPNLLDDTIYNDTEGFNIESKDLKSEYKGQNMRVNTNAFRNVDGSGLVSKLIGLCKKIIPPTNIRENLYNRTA
Sequence of tetanus toxoid (RIT, Smith Kline Beecham) (P04958 458-1315 limits assumed, chain 2 of 2): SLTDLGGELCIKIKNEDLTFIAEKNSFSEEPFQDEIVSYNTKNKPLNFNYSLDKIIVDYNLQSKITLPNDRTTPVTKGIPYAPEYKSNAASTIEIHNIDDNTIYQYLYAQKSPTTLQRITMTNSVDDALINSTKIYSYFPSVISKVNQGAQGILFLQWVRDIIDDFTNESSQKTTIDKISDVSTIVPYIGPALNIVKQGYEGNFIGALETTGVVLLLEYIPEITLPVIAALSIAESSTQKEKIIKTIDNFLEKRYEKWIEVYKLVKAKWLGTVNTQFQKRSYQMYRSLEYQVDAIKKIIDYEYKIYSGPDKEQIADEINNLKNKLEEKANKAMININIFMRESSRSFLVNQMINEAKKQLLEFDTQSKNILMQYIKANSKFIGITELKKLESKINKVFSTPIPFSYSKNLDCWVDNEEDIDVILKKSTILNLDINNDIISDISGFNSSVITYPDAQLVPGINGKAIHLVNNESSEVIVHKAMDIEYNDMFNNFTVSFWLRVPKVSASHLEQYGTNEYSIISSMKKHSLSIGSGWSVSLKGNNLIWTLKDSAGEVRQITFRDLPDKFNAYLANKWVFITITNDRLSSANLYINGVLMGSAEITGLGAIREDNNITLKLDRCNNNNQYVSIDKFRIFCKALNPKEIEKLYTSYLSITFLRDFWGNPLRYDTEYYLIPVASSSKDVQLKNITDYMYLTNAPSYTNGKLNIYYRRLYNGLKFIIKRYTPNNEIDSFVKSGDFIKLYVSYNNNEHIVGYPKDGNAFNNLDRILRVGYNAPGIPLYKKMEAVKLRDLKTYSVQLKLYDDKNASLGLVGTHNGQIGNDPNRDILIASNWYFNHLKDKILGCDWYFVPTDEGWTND

B1: camel VHH αTT2 (anti-tetanus toxoid) (VHH)
VHH: EVQLQASGGGSVQAGGSLRLSCTAANYAFDSKTVGWFRQVPGKEREGVAGISSGGSTTAYSDSVKGRYTVSLENAKNTVYLLIDNLQPEDTAIYYCAGVSGWRGRQWLLLAETYRFWGQGTQVTVSS
  Ka: 2e+07 M⁻¹

B2: camel VHH αTT1 (anti-tetanus toxoid) (VHH)
VHH: EVQLQASGGGSVQAGGSLRLSCAASGGQTFDSYAMAWFRQAPGKECELVSSIIGDDNRNYADSVKGRFTISRDNAKNTVYLQMDRLNPEDTAVYYCAQLGSARSAMYCAGQGTQVTVSS
  Ka: 6e+07 M⁻¹
